Measured values from the supplement of paper PMC10724198.
± gives the standard deviation of the averaged measurements.
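Further: PSI is a weighted mean of sequencing reads over stability bins, variants kept only with over 10 reads, mCherry proximal and sfGFP distal, peptide attached via GGGS linker.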

What follows are sequences tested on Saccharomyces cerevisiae (assay: protein stability index of tFT-peptide fusion (C-terminal peptide) (PSI (0-1 scale)); higher = more stable (slower turnover)). Details: genetic background: wild type; temperature: 30 C.
Procedure: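 Multiplexed protein stability (MPS) profiling in S. cerevisiae. Random 12-aa peptides (tFT-X12 library) are fused to the C-terminus of a sfGFP-mCherry tandem fluorescent timer, after mCherry and a GGGS linker. Cells are FACS-sorted into 8 mCherry/sfGFP bins and deep-sequenced. The protein stability index (PSI) is the read-weighted bin average, scaled from 0 (unstable) to 1 (stable). Only peptides with >10 reads are reported; cells were grown at 30 °C in SC-His with glucose.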
AACGELLKYSLS gave a protein stability index of 0.576 ± 0.011.
AADNTGRNKGPQ gave a protein stability index of 0.685 ± 0.0095.
Sequence AAEPGGGTALRG has a protein stability index of 0.637 ± 0.029.
For AAGGPGGPELWG, the protein stability index was 0.749 ± 0.14.
In the case of AAGLHFYIFRGI, the protein stability index is reported as 0.669 ± 0.025.
In the case of AAGRRGWGRGRG, the protein stability index is reported as 0.788 ± 0.15.
With AAGWRPEGSGAF the protein stability index was 0.725 ± 0.033.
With AALLSSPPLSPP the protein stability index was 0.662 ± 0.062.
AAPSRASDLARP gave a protein stability index of 0.661 ± 0.087.
AARCSPSQEDSF showed a protein stability index of 0.697 ± 0.12.
Work on AARGILLASRRD yielded a protein stability index of 0.739 ± 0.092.
AASGCGRPGCSA gave a protein stability index of 0.663 ± 0.059.
AAVGELLFTSLV showed a protein stability index of 0.699 ± 0.022.
For AAVPPLSQSPDS, the protein stability index was 0.674 ± 0.03.
With ACCIFAFHRSLS the protein stability index was 0.487 ± 0.032.
ACFVVDHGPLHL gave a protein stability index of 0.695 ± 0.031.
ACPLPPLPTPLP gave a protein stability index of 0.736 ± 0.04.
For ACPQPSPSPSQY, the protein stability index was 0.672 ± 0.048.
Sequence ACRREMISVLYT has a protein stability index of 0.624 ± 0.0075.
In the case of ACTPHLPLPAPQ, the protein stability index is reported as 0.706 ± 0.016.
With ACWVAKTGGSPV the protein stability index was 0.654 ± 0.012.
ADAFDRGRISVV was tested, and the protein stability index was 0.792 ± 0.11.
In the case of ADDTFSERIHSK, the protein stability index is reported as 0.7 ± 0.093.
Sequence ADPNDSPPPASP has a protein stability index of 0.617 ± 0.026.
For ADRGLVSLAIVG, the protein stability index was 0.582 ± 0.015.
ADRTLLLKQWYG gave a protein stability index of 0.682 ± 0.037.
For AEAVQQGVTIGG, the protein stability index was 0.68 ± 0.014.
Sequence AEFSGVVIGRWW has a protein stability index of 0.718 ± 0.054.
AEGPWMEDGDMG gave a protein stability index of 0.7024 ± 0.0028.
AELSPGLSVLLL showed a protein stability index of 0.705 ± 0.013.
For AERGRMLSEGKW, the protein stability index was 0.701 ± 0.053.
AFCCRSPPSSHP showed a protein stability index of 0.655 ± 0.096.
With AFCPLLLRGTAP the protein stability index was 0.697 ± 0.045.
In the case of AFLDISIPSSSL, the protein stability index is reported as 0.6857 ± 0.0063.
AFQLGMILSLVA was tested, and the protein stability index was 0.507 ± 0.013.
For AFRKRTFKQESC, the protein stability index was 0.642 ± 0.0098.
Work on AFWYACMSLHRS yielded a protein stability index of 0.728 ± 0.07.
For AFYERLQEWIRA, the protein stability index was 0.613 ± 0.014.
AGAGGGSLGPAG gave a protein stability index of 0.651 ± 0.1.
AGAGGRAMSDTS showed a protein stability index of 0.693 ± 0.0087.
AGAGRGVVLGWW showed a protein stability index of 0.684 ± 0.017.
In the case of AGAGVQAYGRGR, the protein stability index is reported as 0.681 ± 0.015.
AGANPRVGTFWV showed a protein stability index of 0.664 ± 0.032.
Sequence AGARGVAGWLPR has a protein stability index of 0.684 ± 0.041.
AGARVGAPASTR showed a protein stability index of 0.664 ± 0.028.
AGAWVRVVVGWG showed a protein stability index of 0.737 ± 0.012.
Sequence AGCLSGPVDILL has a protein stability index of 0.703 ± 0.046.
With AGEDRGSRWVCI the protein stability index was 0.699 ± 0.032.
Sequence AGFTATTPIRGV has a protein stability index of 0.715 ± 0.022.
Work on AGGAGGCRGWSI yielded a protein stability index of 0.705 ± 0.018.
With AGGGCALGDGWS the protein stability index was 0.649 ± 0.021.
In the case of AGGGEASRGQAK, the protein stability index is reported as 0.596 ± 0.0062.
In the case of AGGGKGGGGGEK, the protein stability index is reported as 0.649 ± 0.029.
With AGGGRGGGSLRV the protein stability index was 0.669 ± 0.034.
In the case of AGGIAVYFGEEE, the protein stability index is reported as 0.746 ± 0.055.
With AGGLGGSILCLV the protein stability index was 0.556 ± 0.025.
AGGSVCRESLEV gave a protein stability index of 0.694 ± 0.064.
For AGGTMVVVVRSC, the protein stability index was 0.51175 ± 3.2e-05.
In the case of AGGVCHVSSLLA, the protein stability index is reported as 0.64 ± 0.021.
AGGVESGGRSGV gave a protein stability index of 0.679 ± 0.02.
AGHGGWREAGGG gave a protein stability index of 0.685 ± 0.0076.
Sequence AGLCVSIGVGRG has a protein stability index of 0.652 ± 0.015.
With AGLGHVPGEHSV the protein stability index was 0.613 ± 0.033.
AGLPGSSFWWVF was tested, and the protein stability index was 0.682 ± 0.058.
Sequence AGLVADGYWLRR has a protein stability index of 0.6892 ± 0.005.
AGLWWGGCAAGA showed a protein stability index of 0.804 ± 0.037.
With AGRAPRGSWECS the protein stability index was 0.719 ± 0.18.
AGRGEIVINGKR gave a protein stability index of 0.615 ± 0.07.
With AGRLEGGRRWRV the protein stability index was 0.69 ± 0.031.
AGSDLGLIEGIV gave a protein stability index of 0.685 ± 0.024.
AGSHPSRLGIFS showed a protein stability index of 0.733 ± 0.033.
Sequence AGSSSLRGRLRG has a protein stability index of 0.69 ± 0.068.
Work on AGSTGGGRGRDW yielded a protein stability index of 0.76 ± 0.14.
In the case of AGTGAHGLREPR, the protein stability index is reported as 0.706 ± 0.15.
For AGTHRDLFQRWS, the protein stability index was 0.711 ± 0.046.
AGTVGRGVSGGR gave a protein stability index of 0.5746 ± 0.0044.
AGVCVAVGGGGF was tested, and the protein stability index was 0.676 ± 0.03.
AGVDKWLMCEVS showed a protein stability index of 0.695 ± 0.034.
In the case of AGVGPTHVRPPR, the protein stability index is reported as 0.676 ± 0.0079.
Work on AGVRGWGIAVTP yielded a protein stability index of 0.64 ± 0.046.
AHGAGCGGRRVA gave a protein stability index of 0.726 ± 0.023.
In the case of AHLPHSSFSWRP, the protein stability index is reported as 0.707 ± 0.05.
In the case of AHLPSPRPRPPP, the protein stability index is reported as 0.764 ± 0.013.
In the case of AHYGSNNNGLVF, the protein stability index is reported as 0.695 ± 0.042.
Sequence AIKGIYPRCYFI has a protein stability index of 0.697 ± 0.0073.
With AIKHMVSHSPGN the protein stability index was 0.683 ± 0.08.
With AILFSASLTLLL the protein stability index was 0.598 ± 0.012.
Work on AILPFGLLPTHR yielded a protein stability index of 0.745 ± 0.017.
In the case of AILTLVQEVRKY, the protein stability index is reported as 0.6203 ± 0.00088.
Work on AIPLPVLSFPPL yielded a protein stability index of 0.737 ± 0.024.
For AIPLYAPSQPCE, the protein stability index was 0.696 ± 0.027.
AIRGGPGGDKEP gave a protein stability index of 0.682 ± 0.024.
For AISCPFIRFSSL, the protein stability index was 0.614 ± 0.0091.
For AITSPLGFGVLG, the protein stability index was 0.717 ± 0.015.
For AKEENQRKYTRR, the protein stability index was 0.637 ± 0.13.
AKGRRRRGRWWG gave a protein stability index of 0.682 ± 0.032.
AKLVESISEVAT showed a protein stability index of 0.6766 ± 0.0052.
AKRLYLLTNRND showed a protein stability index of 0.634 ± 0.025.
Sequence AKSKVAGNVGGD has a protein stability index of 0.669 ± 0.017.
Work on ALCEVLSKSFEF yielded a protein stability index of 0.6617 ± 0.0025.
ALCSGCFAFLGA showed a protein stability index of 0.676 ± 0.11.
Work on ALEFNGLVAGRL yielded a protein stability index of 0.727 ± 0.081.
With ALGVRVSVLGVL the protein stability index was 0.642 ± 0.0075.
Work on ALKVMYMHTGKG yielded a protein stability index of 0.62 ± 0.041.
ALLLTLTCGLFF showed a protein stability index of 0.521 ± 0.019.
For ALMITIMNNREF, the protein stability index was 0.649 ± 0.021.
Work on ALPLPLLACSPL yielded a protein stability index of 0.6268 ± 0.0034.
Work on ALRLLRFPSPPP yielded a protein stability index of 0.628 ± 0.049.
ALRVSGAYREHS showed a protein stability index of 0.735 ± 0.032.
For ALSPAFSPLFLP, the protein stability index was 0.668 ± 0.036.
ALSSVPPCSLPP showed a protein stability index of 0.637 ± 0.016.
In the case of ALSVGGGSGSWY, the protein stability index is reported as 0.736 ± 0.014.
For ALVQWRVGGCGG, the protein stability index was 0.709 ± 0.085.
ALWARSGRVILI was tested, and the protein stability index was 0.674 ± 0.05.
Work on AMGSGLVWAGPA yielded a protein stability index of 0.684 ± 0.03.
Sequence ANQGRRPWRGMC has a protein stability index of 0.585 ± 0.14.
ANRSPLFCVTFG gave a protein stability index of 0.695 ± 0.027.
In the case of APACRLTLVSDF, the protein stability index is reported as 0.752 ± 0.014.
Work on APARPPVTLSTN yielded a protein stability index of 0.671 ± 0.013.
Work on APARTTPRLPFA yielded a protein stability index of 0.724 ± 0.069.
For APDPPGLRGLSP, the protein stability index was 0.719 ± 0.015.
APDRLPLSRCPA showed a protein stability index of 0.699 ± 0.02.
With APFMSLSNTIAR the protein stability index was 0.677 ± 0.026.
Work on APFPMVSSLSFL yielded a protein stability index of 0.761 ± 0.037.
With APGLPSFRSLFA the protein stability index was 0.676 ± 0.016.
APHAPPPSFPAP showed a protein stability index of 0.729 ± 0.0097.
For APHPPPPDPPLP, the protein stability index was 0.697 ± 0.04.
For APKVYVAAYTPL, the protein stability index was 0.676 ± 0.025.
APKYPIQEWIKL gave a protein stability index of 0.594 ± 0.031.
APLFASSASIPL gave a protein stability index of 0.716 ± 0.11.
With APLLQCPILARP the protein stability index was 0.588 ± 0.0067.
APLSLPPPPSPH was tested, and the protein stability index was 0.696 ± 0.033.
APPALPPLSPFP gave a protein stability index of 0.705 ± 0.091.
In the case of APPAPPTYLAPF, the protein stability index is reported as 0.729 ± 0.069.
With APPPLLPLRPFR the protein stability index was 0.606 ± 0.1.
APPPLPPARSPP was tested, and the protein stability index was 0.6541 ± 0.0056.
APPPLPPTPPPL showed a protein stability index of 0.7017 ± 0.0031.
With APPPNSLPPPPP the protein stability index was 0.72 ± 0.022.
APPPPLPAPQLR was tested, and the protein stability index was 0.6186 ± 0.0011.
APPPPSPPSLAS was tested, and the protein stability index was 0.736 ± 0.074.
APPPRPPPPPQL gave a protein stability index of 0.67 ± 0.031.
Work on APPPSPPALVLP yielded a protein stability index of 0.641 ± 0.026.
APRCCPHLLRFR showed a protein stability index of 0.655 ± 0.055.
APSPRPSRPPPL gave a protein stability index of 0.671 ± 0.034.
In the case of APSQPPTPPPIS, the protein stability index is reported as 0.665 ± 0.03.
Work on APSTFRPPTPPS yielded a protein stability index of 0.711 ± 0.03.
In the case of APVLPKPSPFSF, the protein stability index is reported as 0.629 ± 0.01.
For APWSQLRSPPAL, the protein stability index was 0.769 ± 0.037.
For AQIGTKINTRKT, the protein stability index was 0.599 ± 0.04.
For AQPAPAPALADV, the protein stability index was 0.667 ± 0.039.
Sequence AQPPPPPAPTPS has a protein stability index of 0.674 ± 0.093.
With AQSPRFPYRNYH the protein stability index was 0.693 ± 0.049.
With AQTASQSPYRVG the protein stability index was 0.731 ± 0.017.
ARADILLLTWGV gave a protein stability index of 0.604 ± 0.027.
ARAGLVGDARGM showed a protein stability index of 0.641 ± 0.026.
